Reference: PMC8225741, “Tumor-derived neomorphic mutations in ASXL1 impairs the BAP1-ASXL1-FOXK1/K2 transcription network” (Protein & Cell, 2020)

Molecular target: T1, SBP-tagged ASXL1^450–1,300 (human, UniProt Q8IXJ9 450-1300)
T1 construct: ASXL1, human, residues 450–1,300; cDNAs encoding SBP and ASXL1 450-1,300 cloned into pRK7-N-Flag; also called ASXL1 (residues 450–1,300); ASXL^450–1,300; source: HEK293T, overexpressed, immobilized to Streptavidin beads
T1 sequence (looked up): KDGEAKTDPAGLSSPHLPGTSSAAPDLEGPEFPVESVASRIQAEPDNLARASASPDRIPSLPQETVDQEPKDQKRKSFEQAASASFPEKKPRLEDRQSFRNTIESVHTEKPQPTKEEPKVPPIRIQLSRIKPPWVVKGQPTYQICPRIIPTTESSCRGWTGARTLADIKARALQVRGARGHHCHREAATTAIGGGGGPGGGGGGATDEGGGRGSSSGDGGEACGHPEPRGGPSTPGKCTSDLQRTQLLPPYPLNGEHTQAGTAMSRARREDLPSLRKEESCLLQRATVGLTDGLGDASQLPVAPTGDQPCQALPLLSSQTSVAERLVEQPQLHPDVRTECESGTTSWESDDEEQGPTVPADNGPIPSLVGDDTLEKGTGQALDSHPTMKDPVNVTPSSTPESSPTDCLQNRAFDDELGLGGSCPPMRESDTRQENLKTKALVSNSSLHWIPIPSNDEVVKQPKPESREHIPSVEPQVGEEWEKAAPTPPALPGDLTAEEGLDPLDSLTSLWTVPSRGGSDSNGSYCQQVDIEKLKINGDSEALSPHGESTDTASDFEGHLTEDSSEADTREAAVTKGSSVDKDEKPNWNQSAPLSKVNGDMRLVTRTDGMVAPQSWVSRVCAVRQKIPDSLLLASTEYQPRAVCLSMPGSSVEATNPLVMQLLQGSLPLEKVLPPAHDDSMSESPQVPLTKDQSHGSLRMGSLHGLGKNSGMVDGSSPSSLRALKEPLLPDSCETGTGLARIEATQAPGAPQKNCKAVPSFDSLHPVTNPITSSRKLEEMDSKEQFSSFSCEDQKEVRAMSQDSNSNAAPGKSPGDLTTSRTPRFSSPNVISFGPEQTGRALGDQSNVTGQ
Experiment: pull-down; SBP-tagged ASXL1^450–1,300 immobilized to Streptavidin beads, incubated with Flag-peptide-eluted FOXK1 at 4 °C for 3 h, washed 3 times, SDS-PAGE and Coomassie blue staining
Settings: both partners purified

binding result: binds
B1: Flag-tagged full-length FOXK1 protein (natural protein, human, UniProt P85037 1-733, looked up)
chain: MAEVGEDSGARALLALRSAPCSPVLCAAAAAAAFPAAAPPPAPAQPQPPPGPPPPPPPPLPPGAIAGAGSSGGSSGVSGDSAVAGAAPALVAAAAASVRQSPGPALARLEGREFEFLMRQPSVTIGRNSSQGSVDLSMGLSSFISRRHLQLSFQEPHFYLRCLGKNGVFVDGAFQRRGAPALQLPKQCTFRFPSTAIKIQFTSLYHKEEAPASPLRPLYPQISPLKIHIPEPDLRSMVSPVPSPTGTISVPNSCPASPRGAGSSSYRFVQNVTSDLQLAAEFAAKAASEQQADTSGGDSPKDESKPPFSYAQLIVQAISSAQDRQLTLSGIYAHITKHYPYYRTADKGWQNSIRHNLSLNRYFIKVPRSQEEPGKGSFWRIDPASEAKLVEQAFRKRRQRGVSCFRTPFGPLSSRSAPASPTHPGLMSPRSGGLQTPECLSREGSPIPHDPEFGSKLASVPEYRYSQSAPGSPVSAQPVIMAVPPRPSSLVAKPVAYMPASIVTSQQPAGHAIHVVQQAPTVTMVRVVTTSANSANGYILTSQGAAGGSHDAAGAAVLDLGSEARGLEEKPTIAFATIPAAGGVIQTVASQMAPGVPGHTVTILQPATPVTLGQHHLPVRAVTQNGKHAVPTNSLAGNAYALTSPLQLLATQASSSAPVVVTRVCEVGPKEPAAAVAATATTTPATATTASASASSTGEPEVKRSRVEEPSGAVTTPAGVIAAAGPQGPGTGE
notes: FOXK1, human, full-length cDNA; Vector pRK7-N-Flag; source: HEK293T, overexpressed, purified by immunoprecipitation and eluted by Flag peptide; not shown: Flag, N-terminal, kept
